# Reference: the nanobody polyreactivity screen of Harvey et al. (2022)
# Assay: yeast display, Sf9 membrane polyspecificity reagent, FACS + sequencing; frameworks hold sequencing errors
# Summary of the method: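 Sorting gates, low and high (top ~1%), were placed on anti-HA fluorescence to track expression and on streptavidin fluorescence to track reagent binding. A clone's polyreactivity label is taken from the gate it came out of. The reagent was 10% biotinylated, detergent-solubilized Sf9 membrane, applied for 1 hour at 4 °C to galactose-induced yeast display cells.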
row,Sequence,polyreactivity (PSR sort gate)
1,QVQLVESGGGLVQAGGSLRLSCAASGSNSPTMLMGGYRKAPGKERELVAAISGGGRTNYADSVKGRFTISRDNAKNTVYLQMNSLKPEETAVYYCAAGGYYQRTRGDWGQGTQVTVSS,high polyreactivity
2,QVQLVESGGGLVQAGGSLRLSCAASGSNSYFNAMGWYRQAPGKERELVAAITSGGSTYYADSVKGRFTISRDNAKNTVYLQMNSLKPEDTAVYYCNAPLEWGVYAAQNWDDGYWGQGTQVTVSS,low polyreactivity
3,QVQLVESGGGLVQAGGSLRLSCAASGSNVPSYAMGWYRQAPGKERELVAAINSGGGTNYADSVKGRFTISRDNAKNTVYVQMNSLKPEDTAVYYCAKSRYDYTKTEGGYWGQGTQVTVSS,low polyreactivity
4,QVQLVESGGGLVQAGGSLRLSCAASGSNVYIYAMGWYRQAPGKERELVASINSGGSTNYADSVKGRFTISRDNAKNTVYLQMNSLKPEDTAVYYCNADVYDTYSPLGYYYWGQGTQVTVSS,low polyreactivity
5,QVQLVESGGGLVQAGGSLRLSCAASGSPFGFNAMGWYRQAPGKERELVAAISRSGTRTYYADSVKGRFTISRDNEKNTVYLQMNSQKPEDTAVYFCAADSTLSRYDYWGQGTQVTVSS,high polyreactivity
6,QVQLVESGGGLVQAGGSLRLSCAASGSPFLTNAMGWDRQAPGKERELVAAITWSTGSTYYADSVKGRFTISRDNAKNTVYLQMNSLKPEDTAVYYCNARSEVSYWWGGYWGEGTQVTVSS,low polyreactivity
7,QVQLVESGGGLVQAGGSLRLSCAASGSPFNYYAMGSYRQAPGKERELVAGINRGGSTNYADSVKGRFTISRDNAKNTVYLQMNSLKPEDTAVYYCAVRAYRWRSTLGLYYWGQGTQVTVSS,high polyreactivity
8,QVQLVESGGGLVQAGGSLRLSCAASGSPFRTYAIGWYRQAPGKERELVASIDSTGSTNYADSVKGRFTISRDNAKNTVYLQMNCLKAEVTAVYYCAAETYSYPPFYAYDYWGQGTQVTVSS,low polyreactivity
9,QVQLVESGGGLVQAGGSLRLSCAASGSPFVDNDMGWSRQAPGKDRELVAAAITARGGSTYYADSVKGRFTISRDNAKNTVYLQMNSLKPEDTAVYYCAAGRPGELDYWGQGTQVTVSS,low polyreactivity
10,QVQLVESGGGLVQAGGSLRLSCAASGSRFSHYSMGWYRQAPGKERDLVATITGTGVRTSYADSVKGRFTISRDNAKNTVYLQMNSLKAEDTAVYYCAADGDYDPNLYGYWGQGTQVTVSS,low polyreactivity
11,QVQLVESGGGLVQAGGSLRLSCAASGSSFDDYTMVWYRQAPGKERELVADSTESGGTTYADSVKGRFTISRDNAKNTVYLQMYSLKPVDTAVYYCNADIYISPLVQVSKGYDYWGQGTQVTVSS,low polyreactivity
12,QVQLVESGGGLVQAGGSLRLSCAASGSSFNSYAMGWYRQAPGKERELVASITRGGSTYYADSVKGRFTISRDNAKTTVYLQMNSLKPEDTAVYYCAARFTQHNYWAMDYRGQGTQVTVSS,high polyreactivity
13,QVQLVESGGGLVQAGGSLRLSCAASGSSFPRYAMAWYTPAPGKERELVAAISSGGSTYYADSVKGRFTISRDNAKNTVYLQMNSLKPEDTAVYYCTARRSRSRYDYWGQVTQVTVSS,high polyreactivity
14,QVQLVESGGGLVQAGGSLRLSCAASGSSFRRNAMGWYRQAPGKERELVAAITRGGGSTYYADSVKGRFTISRDNAKNTVYLQMNSLKPEDNAVYYCAAQISATRETMDYWGQGTQVTVSS,high polyreactivity
15,QVQLVESGGGLVQAGGSLRLSCAASGSSFRVYAMGWYRQAPGKERELVAAISGSGGSTYYADSVKGRFTISRDNAKNTVYLQMNSLKPVDTAVYYCAARSWYTEYYWGQCTQVTVSS,high polyreactivity
16,QVQLVESGGGLVQAGGSLRLSCAASGSSFSYYTMGWYRQAPGKERELVAAITSGGPTNYADSVKGRFTISRDNAKKTVYLQMNSLKPEDTAVYYCAADLYYGWGYYYWGQGTQVTVSS,low polyreactivity
17,QVQLVESGGGLVQAGGSLRLSCAASGSSFTGNAMGWYRQAPGKERELVASINGSSGSTYYADSVKGRFTISRDNAKNTVYLEMNSLKPEDTAVYYCNADTYYVEYTAFDYWGQGTQVTVSS,low polyreactivity
18,QVQLVESGGGLVQAGGSLRLSCAASGSSFVLYAMGWYRQAPGKERELVAAISLSVGSTYYADSVKGRFTISRDNAKNTVYLQMNSLKPEDTAVYDCNARSSIVSYYWYHYWTREFDYWGQGTQVTVSS,low polyreactivity
19,QVQLVESGGGLVQAGGSLRLSCAASGSSFYDNAMGWYRQAPAKERELVAAITWDGDGTYYADSVKGRFTISRDNAKNTVYLQMNSLKPEDTAVYYCAADYYLVGFDYYYWYGYWGQGTQVTVSS,low polyreactivity
20,QVQLVESGGGLVQAGGSLRLSCAASGSSIYVYVMGWYRQAPGKERELVAVIDWRGGSTYYADSVKGRFTISRDNAKNTVYLQMNSLKPEDSSVYYCNKVAQFYYKLPYYKERDWGQGTQVTVSS,low polyreactivity
21,QVQLVESGGGLVQAGGSLRLSCAASGSSKLRLWDGIDRRLGKKGSWLPLFVLVVLRNYADSVKGRFTISRDNAKNTVYLQMNSLKPEDTAVYYCAATPIGSGGWGDYWGQGTQVTVSS,low polyreactivity
22,QVQLVESGGGLVQAGGSLRLSCAASGSSLTRNDMGWHRLAPGKERELVAAISFSGSDTYYADSVKGRFTISRDNAKNTVYLQMNSLKPEDTAVYYCAAEYGGYSKYLFIGRYYWGQGTQVTVSS,low polyreactivity
